The values below come from patent US20130260455A1 (ONCOMED PHARMACEUTICALS, published 2013).

Positions count from the first letter of the chain named.

Experiment [1] has as its target T1, hN2 12-12 (human Notch2 amino acids 454-493 fused to hFc) (human, UniProt Q04721 454-493).
T1 construct: not shown: constant region of human IgG (hFc)
T1 chain: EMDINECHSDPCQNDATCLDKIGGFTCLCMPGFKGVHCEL
Briefly: capture ELISA: hN2-hFc from HEK-293 supernatant on anti-human Fc plates, 59R1 Fab, HRP anti-human Fab [lower graph]. The method, then: (§1) The binding of anti-Notch2/3 antibodies to supernatant from HEK 293 cells transfected with sequences encoding recombinant human Notch2 Fc fusion proteins comprising the full length human Notch2 protein or various human Notch2 deletion constructs containing various deletions of EGF repeats one to twelve were tested by ELISA. HEK-293 cells were transiently transfected with pcDNA 3.1 (Invitrogen) with hNotch2 cDNA's encoding for the indicated amino acids fused to the constant region of human IgG (hFc). Supernatants were harvested 48 hours later. To capture hN2-hfc proteins, 96 well plates were first coated with goat anti-human Fec gamma specific IgG (Jackson Immunochemicals, #109-006-098) at 100 ng per well in sodium bicarbonate buffer overnight at 4°. Plates were washed and blocked in 5% bovine serum/PBS-Tween-20. Supernatants were added to plates and incubated at room temperature for 1 hour. Plates were washed in PBS-T. 59R1 Fab was added at 10 μg/ml in 5% serum/PBS-T and incubated at room temperature for 1 hour. Plates were washed in PBS-T. Fab binding was detected by goat anti-human Fab specific antibody conjugated to horseradish peroxidase (Thermo. #31414) diluted 1:5000 in 5% serum/PBS-T for 1 hour at room temperature. Plates were washed and developed with 1 Step Ultra TMB (Thermo. #34028). Plates were read on a Perkin Elmer Victor 1420 plate reader. […] (FIG. 3A).
A general note: An ELISA detects its analyte on a solid surface through an enzyme-linked reagent.

Experiment [2] concerns the target T2, hN2 11-12 (human Notch2 amino acids 413-493 fused to hFc) (human, UniProt Q04721 413-493).
T2 construct: not shown: constant region of human IgG (hFc)
T2 sequence: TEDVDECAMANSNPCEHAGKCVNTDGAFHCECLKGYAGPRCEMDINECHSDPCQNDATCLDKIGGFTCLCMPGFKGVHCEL
The experiment is described as above. Here is the method:
as §1

Experiment [3] concerns the target T3, hN2 1-3 (human Notch2 amino acids 1-144 fused to hFc) (human, UniProt Q04721 26-144).
T3 construct: Supernatant of transfected HEK-293 cells, captured with anti-human Fc; not shown: constant region of human IgG (hFc)
Briefly: capture ELISA: hN2-hFc from HEK-293 supernatant on anti-human Fc plates, 59R1 Fab, HRP anti-human Fab [upper graph]. The method, then:
as §1

In experiment [4] the target is T4, hN2 1-8 (human Notch2 amino acids 1-341 fused to hFc) (human, UniProt Q04721 26-341).
T4 construct: not shown: constant region of human IgG (hFc)
T4 sequence: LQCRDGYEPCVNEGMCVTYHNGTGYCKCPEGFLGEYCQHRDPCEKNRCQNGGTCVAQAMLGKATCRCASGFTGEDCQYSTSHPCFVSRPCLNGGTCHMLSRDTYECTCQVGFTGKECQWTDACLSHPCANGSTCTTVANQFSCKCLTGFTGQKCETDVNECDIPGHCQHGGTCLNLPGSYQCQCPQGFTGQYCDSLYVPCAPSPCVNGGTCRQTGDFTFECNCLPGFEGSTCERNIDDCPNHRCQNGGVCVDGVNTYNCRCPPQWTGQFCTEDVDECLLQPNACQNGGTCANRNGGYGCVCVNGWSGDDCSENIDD
Described as above. Here is the method:
as §1

The target of experiment [5] is T5, hN2 1-4 (human Notch2 amino acids 1-181 fused to hFc) (human, UniProt Q04721 26-181).
T5 construct: not shown: constant region of human IgG (hFc)
The description is as above. Here is the method:
as §1

Experiment [6] concerns the target T6, hN2 1-7 (human Notch2 amino acids 1-301 fused to hFc) (human, UniProt Q04721 26-301).
T6 construct: not shown: constant region of human IgG (hFc)
T6 sequence: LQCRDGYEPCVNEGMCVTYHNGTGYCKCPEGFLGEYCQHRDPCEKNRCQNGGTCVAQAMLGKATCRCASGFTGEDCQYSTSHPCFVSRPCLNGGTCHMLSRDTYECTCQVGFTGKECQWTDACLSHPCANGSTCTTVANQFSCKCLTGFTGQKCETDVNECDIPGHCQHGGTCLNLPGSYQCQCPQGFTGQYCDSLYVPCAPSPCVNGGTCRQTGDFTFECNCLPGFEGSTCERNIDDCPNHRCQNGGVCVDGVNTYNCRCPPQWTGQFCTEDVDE
Described as above. The method, then:
as §1

For experiment [7], the target named is T7, hN2 1-5 (human Notch2 amino acids 1-221 fused to hFc) (human, UniProt Q04721 26-221).
T7 construct: not shown: constant region of human IgG (hFc)
The description is as above. The method, then:
as §1

For experiment [8], the target named is T8, hN2 1-9 (human Notch2 amino acids 1-378 fused to hFc) (human, UniProt Q04721 26-378).
T8 construct: not shown: constant region of human IgG (hFc)
T8 sequence: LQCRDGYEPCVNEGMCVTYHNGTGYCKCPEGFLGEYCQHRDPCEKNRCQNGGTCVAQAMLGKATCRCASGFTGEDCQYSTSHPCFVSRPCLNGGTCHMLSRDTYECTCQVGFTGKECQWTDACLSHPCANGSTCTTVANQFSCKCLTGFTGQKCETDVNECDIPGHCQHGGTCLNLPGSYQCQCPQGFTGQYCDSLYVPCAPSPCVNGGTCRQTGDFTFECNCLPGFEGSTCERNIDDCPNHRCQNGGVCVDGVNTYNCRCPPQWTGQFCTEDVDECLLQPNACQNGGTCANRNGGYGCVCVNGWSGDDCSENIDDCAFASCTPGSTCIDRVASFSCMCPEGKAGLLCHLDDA
The experiment is described as above. Here is the method: as §1

Experiment [9] has as its target T9, hN2 1-6 (human Notch2 amino acids 1-263 fused to hFc) (human, UniProt Q04721 26-263).
T9 construct: not shown: constant region of human IgG (hFc)
T9 sequence: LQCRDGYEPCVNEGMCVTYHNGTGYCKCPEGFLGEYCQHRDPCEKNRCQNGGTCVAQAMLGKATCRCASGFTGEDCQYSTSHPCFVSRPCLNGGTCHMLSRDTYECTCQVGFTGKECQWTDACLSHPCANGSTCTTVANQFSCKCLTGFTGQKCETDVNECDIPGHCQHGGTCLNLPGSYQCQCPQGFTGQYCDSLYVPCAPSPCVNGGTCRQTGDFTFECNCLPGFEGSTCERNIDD
The description is as above. Here is the method: as §1

Experiment [10] addresses T10, human Notch2 as used in the Biacore analysis of Table 6 (construct not stated) (human, UniProt Q04721 375-605, limits assumed).
T10 construct: also called h-Notch2
T10 sequence: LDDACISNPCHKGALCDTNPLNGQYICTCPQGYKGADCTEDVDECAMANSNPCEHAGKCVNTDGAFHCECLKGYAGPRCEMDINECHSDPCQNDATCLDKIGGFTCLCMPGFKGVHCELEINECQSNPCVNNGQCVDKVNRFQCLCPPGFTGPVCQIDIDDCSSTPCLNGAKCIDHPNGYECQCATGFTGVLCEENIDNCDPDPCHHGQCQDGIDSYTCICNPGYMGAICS
Briefly: Biacore SPR. On the technique in general: SPR reads the build-up and loss of mass on a sensor chip optically.

Experiment [11] has as its target T11, recombinant human Notch3 (EGF9-14) (human, UniProt Q9UM47 351-580).
T11 construct: The whole entry for hNotch3 is named here; also called hNotch3; h-Notch3
T11 sequence: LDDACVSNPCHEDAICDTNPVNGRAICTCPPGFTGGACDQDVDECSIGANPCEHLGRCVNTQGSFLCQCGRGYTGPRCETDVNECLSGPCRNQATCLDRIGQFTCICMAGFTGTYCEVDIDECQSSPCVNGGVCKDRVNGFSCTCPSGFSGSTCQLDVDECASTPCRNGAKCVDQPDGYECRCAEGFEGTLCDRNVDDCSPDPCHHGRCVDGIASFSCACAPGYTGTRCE
Put plainly: Biacore SPR.

Experiment [12] deals with T12, recombinant mouse Notch2 (EGF10-15) (mouse, UniProt O35516 375-605).
T12 construct: domain: EGF10-15; also called mNotch2; m-Notch2
T12 sequence (looked up): T10 sequence with I121V, V191I, E194D
Briefly: Biacore SPR.

The target of experiment [13] is T13, recombinant mouse Notch3 (EGF9-14) (mouse, UniProt Q61982 352-581).
T13 construct: domain: EGF9-14; also called mNotch3; m-Notch3
T13 sequence (looked up): T11 sequence with N22S, T153M, D193E, T227I
Put plainly: Biacore SPR.

In experiment [14] the target is T14, human Notch1, full length, on transfected cells (human, UniProt P46531 19-2555).
T14 construct: also called hNotch1
Briefly: FACS on HEK 293 cells transiently transfected with Notch1 Full Length and GFP. The method, then: FIG. 15. In vitro characterization of 59R5. […] PC3 tumor cells were transiently transfected with human or mouse Notch receptor (hN2, human Notch2; mN2, murine Notch2; hN3, human Notch3; mN3, murine Notch3) and GFP inducible reporter construct. Transfected cells were incubated with different concentrations of antibody 59R1 and 59R5 in the presence of passively immobilized DLL4 Fc. […] Cells were also co-transfected with a plasmid encoding green fluorescent protein (GFP) to mark those cells that received transfected plasmid. Cells were incubated with 59R1 or 59R5 and fluorescent secondary antibody and then examined by FACS.
The binding epitope of 59R5 was determined. As was described in Example 3 for analysis of antibody 59R1, several point mutants were created within full-length Notch1, converting residues within EGF10 to the corresponding amino acids in human Notch 2. Mutants in full-length Notch sequences were generated by QuikChange® mutagenesis (Stratagene) and verified by sequencing. […] Cells were also co-transfected with a plasmid encoding green fluorescent protein (GFP) to mark those cells that received transfected plasmid. Cells were incubated with 59R1 or 59R5 and fluorescent secondary antibody and then examined by FACS. 59R1 and 59R5 were detected by PE-conjugated goat anti-human Fc gamma specific antibody (Jackson Immunochemicals, #109-116-170).

T14 sequence (P46531 19-2555 limits assumed): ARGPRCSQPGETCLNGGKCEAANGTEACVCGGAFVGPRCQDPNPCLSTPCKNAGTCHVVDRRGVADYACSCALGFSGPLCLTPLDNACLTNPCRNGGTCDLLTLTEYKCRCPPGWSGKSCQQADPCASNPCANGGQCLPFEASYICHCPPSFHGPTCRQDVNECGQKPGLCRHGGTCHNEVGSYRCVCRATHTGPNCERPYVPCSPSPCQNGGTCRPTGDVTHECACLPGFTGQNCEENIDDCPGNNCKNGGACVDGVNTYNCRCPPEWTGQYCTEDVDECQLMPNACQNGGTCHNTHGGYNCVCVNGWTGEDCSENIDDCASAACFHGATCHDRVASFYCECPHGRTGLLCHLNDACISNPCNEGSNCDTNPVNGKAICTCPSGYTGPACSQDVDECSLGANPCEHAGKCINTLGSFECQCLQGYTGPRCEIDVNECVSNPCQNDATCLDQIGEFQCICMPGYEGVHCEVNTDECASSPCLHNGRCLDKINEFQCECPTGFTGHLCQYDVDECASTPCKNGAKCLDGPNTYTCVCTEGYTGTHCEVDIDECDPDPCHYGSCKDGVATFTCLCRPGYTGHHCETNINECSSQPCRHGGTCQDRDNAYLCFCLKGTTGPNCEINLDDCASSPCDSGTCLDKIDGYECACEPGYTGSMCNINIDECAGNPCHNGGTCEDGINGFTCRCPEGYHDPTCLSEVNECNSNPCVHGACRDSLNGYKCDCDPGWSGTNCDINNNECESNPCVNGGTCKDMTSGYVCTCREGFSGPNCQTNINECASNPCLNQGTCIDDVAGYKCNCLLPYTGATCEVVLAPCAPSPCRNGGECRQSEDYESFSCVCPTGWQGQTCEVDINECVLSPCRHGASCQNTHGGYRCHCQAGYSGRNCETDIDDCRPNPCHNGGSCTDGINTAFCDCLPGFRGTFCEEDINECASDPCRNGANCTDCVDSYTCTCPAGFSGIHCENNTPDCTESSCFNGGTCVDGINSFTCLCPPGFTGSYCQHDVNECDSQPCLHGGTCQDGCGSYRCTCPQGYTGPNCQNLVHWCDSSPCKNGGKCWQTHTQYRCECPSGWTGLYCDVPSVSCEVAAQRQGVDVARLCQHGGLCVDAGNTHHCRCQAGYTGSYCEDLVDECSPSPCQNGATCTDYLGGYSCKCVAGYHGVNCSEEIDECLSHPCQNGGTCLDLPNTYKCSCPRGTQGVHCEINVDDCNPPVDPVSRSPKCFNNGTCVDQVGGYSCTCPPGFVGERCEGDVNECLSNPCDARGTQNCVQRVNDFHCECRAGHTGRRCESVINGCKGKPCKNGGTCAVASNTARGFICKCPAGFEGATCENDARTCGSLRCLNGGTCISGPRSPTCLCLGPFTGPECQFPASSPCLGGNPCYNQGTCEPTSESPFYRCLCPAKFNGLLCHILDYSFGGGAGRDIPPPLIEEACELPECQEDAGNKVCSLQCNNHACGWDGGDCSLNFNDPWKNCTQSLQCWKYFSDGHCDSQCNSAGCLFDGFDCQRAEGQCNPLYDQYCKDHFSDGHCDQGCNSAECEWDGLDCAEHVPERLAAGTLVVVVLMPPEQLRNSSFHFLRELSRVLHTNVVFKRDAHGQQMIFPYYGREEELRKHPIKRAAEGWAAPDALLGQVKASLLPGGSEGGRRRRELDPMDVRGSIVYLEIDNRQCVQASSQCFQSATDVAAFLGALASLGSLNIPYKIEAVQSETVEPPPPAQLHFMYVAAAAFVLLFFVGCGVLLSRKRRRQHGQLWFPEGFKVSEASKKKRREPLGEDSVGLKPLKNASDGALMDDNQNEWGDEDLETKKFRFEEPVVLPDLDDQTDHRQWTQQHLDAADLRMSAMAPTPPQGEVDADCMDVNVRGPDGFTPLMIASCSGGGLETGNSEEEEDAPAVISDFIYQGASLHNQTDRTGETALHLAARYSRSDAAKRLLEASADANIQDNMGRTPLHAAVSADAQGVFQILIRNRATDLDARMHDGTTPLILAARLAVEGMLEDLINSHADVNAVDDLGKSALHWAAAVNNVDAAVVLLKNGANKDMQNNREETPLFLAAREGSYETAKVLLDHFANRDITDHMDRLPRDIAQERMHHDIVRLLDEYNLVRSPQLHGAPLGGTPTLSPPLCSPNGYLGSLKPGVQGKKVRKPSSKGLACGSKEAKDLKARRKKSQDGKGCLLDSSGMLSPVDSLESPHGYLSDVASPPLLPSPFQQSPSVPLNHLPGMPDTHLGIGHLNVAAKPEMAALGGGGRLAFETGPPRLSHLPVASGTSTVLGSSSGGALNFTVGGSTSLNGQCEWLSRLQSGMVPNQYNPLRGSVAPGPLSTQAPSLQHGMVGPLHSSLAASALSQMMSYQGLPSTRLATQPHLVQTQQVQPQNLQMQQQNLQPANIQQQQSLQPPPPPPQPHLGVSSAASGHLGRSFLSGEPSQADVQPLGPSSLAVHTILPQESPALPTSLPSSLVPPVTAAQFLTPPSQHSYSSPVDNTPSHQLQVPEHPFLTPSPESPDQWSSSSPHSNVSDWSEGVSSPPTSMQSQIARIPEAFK

B1: 59R1 Fab (Fab, V domains shown)
VH: QVQLVESGGGLVQPGGSLRLSCAASGFTFSSSGMSWVRQAPGKGLEWVSVIASSGSNTYYADSVKGRFTISRDNSKNTLYLQMNSLRAEDTAVYYCARGIFFAIWGQGTLVTVSS
VL: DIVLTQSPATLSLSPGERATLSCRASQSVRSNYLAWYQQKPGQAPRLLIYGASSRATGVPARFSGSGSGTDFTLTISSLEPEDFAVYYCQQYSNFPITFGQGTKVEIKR
notes: also called Clone 1; 59R Fab antibody
With B1, the binding result in experiment [1], in experiment [2], in [3], in experiment [4], in [5] and in experiment [6] was “no binding (tested: 10 ug/ml)” throughout. The binding result in experiment [7], in [8] and in experiment [9] was “no binding (tested: 10 ug/ml)” throughout.

B2: 59R5 antibody (antibody, human IgG2, kappa, V domains shown)
VH: B1 VH with Q1E, G99S, F102Y, A103T, I104T
VL: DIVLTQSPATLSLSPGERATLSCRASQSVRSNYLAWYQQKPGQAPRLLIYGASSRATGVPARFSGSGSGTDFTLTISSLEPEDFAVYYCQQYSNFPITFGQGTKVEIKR
notes: Human IgG2; also called anti-Notch2/3 antibody 59R5; 59R5 IgG2
On to B2, for which the Kd was determined as 0.05 nM in [10], 0.22 nM in [11], 0.26 nM in experiment [12] and 0.29 nM in experiment [13]. Besides, the binding result in experiment [14] was “no binding”.

The term Kd denotes the constant that tells how readily two partners part at equilibrium.
